Assay results: patent US11485792B2, “Antibodies, uses thereof and conjugates thereof” (Polytherics Limited, priority 2016, dated 2022)

Assays:
[1] = Fluorescence-based thermal-shift assay (Sypro Orange); format: physicochemical
Description: Antibody was diluted to 1.5 mg/mL with DPBS, pH 7.1-7.5, and the concentration determined by measuring OD at 280 nm using a Nanodrop instrument. SEC analysis was carried out prior to thermal-shift analysis to confirm that over 99% of each antibody was present in their native form.
An RT-PCR instrument (StepOnePlus, Applied Biosystems) was set-up for a fluorescence-based thermal-shift assay using Sypro Orange dye as a fluorescent reporter. The assay was set-up in a PCR 96 well plate with five replicates per antibody sample and a final reaction volume of 20 μL per well. 13.5 μL of DPBS was pipetted in each well followed by the addition of 4 μL of antibody. […] Fluorescence data was collected throughout the temperature ramp, using an excitation filter at 470 nm and emission filter at 610 nm. […] The melting curves generated by the instrument software during the thermal unfolding of the antibodies result from the plotting of fluorescence vs. temperature. The melting temperature (Tm), is the temperature at which half of the antibody molecules are unfolded, (indicated by a 50% increase in fluorescence), and can be determined from the inflection point of the melting curve. The Tms are conventionally calculated by plotting a derivative plot. This is the change in fluorescence divided by the […] (the change rate) plotted on the Y-axis versus temperature on the X-axis. […]

[2] = Heat stress test with SEC analysis of aggregation; format: physicochemical
Description: Antibody samples (0.5 mg/mL in PBS) were incubated at 75° C. for 30 min followed by incubation in an ice-bath for 5 min prior to being analysed for their extent of aggregation. Analysis of antibody solutions was carried out by Size Exclusion Chromatography (SEC) and by turbidity measurements.
SEC was performed using a TOSOH Bioscience TSK gel Super SW 3000 column. UV absorbance at 280 nm was monitored during an isocratic elution with a 0.2 M Potassium phosphate buffer, pH 6.8 (0.2 M potassium chloride and 15% isopropanol). The elution times and number of peaks indicate whether the sample contains aggregated, degraded or native antibody. The % area under the curve (Abs280) was used to determine the quantity of each species present in the SEC analysis.

PC-3 cells = assay: In vitro cell viability assay (CellTiter Glo), PC-3 (PSMA-negative control); format: cell-based; conditions: Example 16; PSMA-negative PC-3 (negative control), 96 h
Source text: Loss of tumour cell viability following treatment with cytotoxic drugs or ADCs in vitro can be measured by growing cell lines in the presence of increasing concentrations of drugs or ADCs and quantifying the loss of proliferation or metabolic activity using CellTiter Glo® Luminescence reagent (Promega Corp. Technical Bulletin TB288; Lewis Phillips G. D, Cancer Res 2008; 68:9280-9290). The protocol describes cell seeding, drug treatment and determination of the cell viability in reference to untreated cells based on ATP synthesis, which is directly related to the number of cells present in the well.
PSMA-positive LNCaP (clone FGC) and C4-2 cells, as well as PSMA-negative PC-3 cells were detached with TrypLE and resuspended in complete medium. Cells were counted using disposable Neubauer counting chambers and cell density adjusted to 10×10^4 cells/mL for LNCaP, 2×10^4 cells/mL for C4-2 and 1×10^4 cells/mL for PC-3 respectively. […]
The cell viability assay was carried out using the Cell-Titer Glo® Luminescence reagent, as described by the manufacturer's instructions, (Promega Corp. Technical Bulletin TB288; Lewis Phillips G. D, Cancer Res 2008; 68:9280-9290). Luminescence was recorded using a plate reader (e.g. Molecular Devices Spectramax M3 plate reader), and data subsequently analysed using a four parameter non-linear regression model. […]

[3] = post stress test: 0.5 mg/mL in PBS, 75° C. for 30 min, then ice-bath 5 min, SEC

B1: AB-P2: prior art anti-PSMA antibody, heavy and light chain SEQ ID No 37 and 38 (antibody, V domains shown)
VH: MELGLRWVLLVALLRGVQCQVQLVESGGGVVQPGRSLRLSCAASGFTFSNYVMHWVRQAPGKGLEWVAIIWYDGSNKYYADSVKGRFTISRDNSKNTLYLQMNSLRAEDTAVYYCAGGYNWNYEYHYYGMDVWGQGTTVTVSS
VL: MRVPAQLLGLLLLCFPGARCDIQMTQSPSSLSASVGDRVTITCRASQGITNYLAWFQQKPGKAPKSLIYAASSLQSGVPSKFSGSGSGTDFSLTISSLQPEDFATYYCQQYNSYPITFGQGTRLEIK
Tm1 (° C.) ([1]; first transition peak: unfolding of the CH2 and Fab domains): 68.9 ± 0.1 °C
Tm2 (° C.) ([1]; second transition peak: unfolding of the CH3 domain): 75.2 ± 0.1 °C
Ab in aggregated form (%) [2, 3]: 100%
Ab in native conformation (%) [2, 3]: 0%
stability in heat stress SEC analysis (in words) ([2]; propensity to aggregate upon heating and cooling): less stable than AB-03

B2: ADC 34 (conjugate)
heavy: QVQLVESGGGVVQPGRSLRLSCAASGFTFSNYVMHWVRQAPGKGLEWVAIIWYDGSNKYYADSVKGRFTISRDNSKNTLYLQMNSLRAEDTAVYYCAGGYNWNYEYHYYGMDVWGQGTTVTVSS
light: DIQMTQSPSSLSASVGDRVTITCRASQGITNYLAWFQQKPGKAPKSLIYAASSLQSGVPSKFSGSGSGTDFSLTISSLQPEDFATYYCQQYNSYPITFGQGTRLEIK
modifications: non-natural residues
IC50 (PC-3 cells): > 50 nM
